Laboratory results published in publication PMC11525548.

How the values were obtained:
[1] = molecular target: tusa Fab+Fc light chain Pro95Ala variant (human) (UniProt P01834); assay: SPR
[2] = molecular target: human CEACAM5 extracellular domain (Homo sapiens) (UniProt P06731); assay: SPR

Kd [1] [µM]	koff [1] [s⁻¹]	kon [1] [M⁻¹ s⁻¹]	Kd [2] [nM]	koff [2] [s⁻¹]	kon [2] [M⁻¹ s⁻¹]	t1/2 of dissociation [2] [min]	Substance
13.5	0.0177	1310	–	–	–	–	human CEACAM5 extracellular domain (from UniProt P06731 35-685) (domain or fragment)
–	–	–	8.2	0.00322	395000	–	tusa Fab+Fc heavy chain Gly26Ala variant (antibody)
–	–	–	306	0.0199	64800	–	tusa Fab+Fc heavy chain His99Ala variant (antibody)
–	–	–	8.2	0.00368	–	–	tusa Fab+Fc heavy chain Phe29Ala variant (antibody)
–	–	–	6.7	0.00205	307000	–	tusa Fab+Fc heavy chain Ser30Ala variant (antibody)
–	–	–	5.6	–	321000	–	tusa Fab+Fc heavy chain Ser53Ala variant (antibody)
–	–	–	2010	0.0531	26400	–	tusa Fab+Fc heavy chain Tyr50Ala variant (antibody)
–	–	–	–	0.0637	73200	–	tusa Fab+Fc light chain His91Ala variant (antibody)
–	–	–	1340	0.0362	–	0.3	tusa Fab+Fc light chain Phe30Ala variant (antibody)
–	–	–	8.2	0.00238	291000	–	tusa Fab+Fc light chain Ser31Ala variant (antibody)
–	–	–	1790	0.0552	30800	–	tusa Fab+Fc light chain Tyr92Ala variant (antibody)
–	–	–	14	0.00386	275000	–	tusamitamab antigen-binding fragment region plus the fragment crystallizable region, wild type (antibody)
